B3: tomato ethylene receptor protein LeETR1 (receptor, UniProt Q41342 1-754, looked up)
chain: MGSLLRMNRLLSSIVESCNCIIDPQLPADDLLMKYQYISDFFIALAYFSIPVELIYFVKKSAVFPYRWVLVQFGAFIVLCGATHLINLWTFNMHTRNVAIVMTTPKALTALVSCITALMLVHIIPDLLSVKTRELFLKKKAAQLDREMGIIRTQEETGRHVRMLTHEIRSTLDRHTILKTTLVELGRTLALEECALWMPTRTGLELQLSYTLRHQNPVGLTVPIQLPVINQVFGTNHVVKISPNSPVARLRPAGKYMPGEVVAVRVPLLHLSNFQINDWPELSTKRYALMVLMLPSDSARQWHVHELELVEVVADQVAVALSHAAILEESMRARDLLMEQNVALDLARREAEMAVRARNDFLAVMNHEMRTPMHAIIALSSLLQETDLTPEQRLMVETILKSSNLLATLINDVLDLSRLEDGSLQLDIGTFNLHALFREVHSLIKPIASVKKLFVTLSLSSDLPEYVIGDEKRLMQILLNVVGNAVKFSKEGNVSISAFVAKSDSLRDPRAPEFFAVPSENHFYLRVQIKDTGIGITPQDIPNLFSKFTQSQALATTNSGGTGLGLAICKRFVNLMEGHIWIESEGLGKGSTAIFIIKLGIPGRANESKLPFVTKLPANHTQMSFQGLKVLVMDENGVSRMVTKGLLTHLGCDVTTVGSRDECLRVVTHEHKVVIMDVSMQGIDCYEVAVVIHERFGKRHGRPLIVALTGNTDRVTKENCMRVGMDGVILKPVSVYKMRSVLSELLEHGVVLES
modifications: Alexa Fluor 488 succinimidyl-ester label (MST with LeEIN2, FRET assay); Alexa Fluor 488-Maleimide label (MST with NOP-1); non-labeled in the reverse MST titration
notes: ethylene receptor ETR1 of tomato (LeETR1); Membrane protein kept in 0.015% Fos-Choline-16 for MST; also called tomato ETR1; tomato receptor

Key:
LeETR1 = molecular target: T1, LeETR1 (Solanum lycopersicum, UniProt Q41342); test: MST interaction of labeled LeETR1 with LeEIN2^462–1316; format: binding, tomato; conditions: 0.4 μM LeETR1 labeled with Alexa Fluor 488 succinimidyl-ester, LeEIN2^462–1316 4.69 nM to 9.6 μM, 50 mM Tris-HCl pH 8.0, 300 mM NaCl, 0.015% (w/v) Fos-Choline-16, 80% MST power, independent triplicates, mean +/− standard deviation, read-out: Kd of LeEIN2-LeETR1 complex formation
T1 construct: made in house; host or cells: E. coli
T1 sequence (Q41342 1-754): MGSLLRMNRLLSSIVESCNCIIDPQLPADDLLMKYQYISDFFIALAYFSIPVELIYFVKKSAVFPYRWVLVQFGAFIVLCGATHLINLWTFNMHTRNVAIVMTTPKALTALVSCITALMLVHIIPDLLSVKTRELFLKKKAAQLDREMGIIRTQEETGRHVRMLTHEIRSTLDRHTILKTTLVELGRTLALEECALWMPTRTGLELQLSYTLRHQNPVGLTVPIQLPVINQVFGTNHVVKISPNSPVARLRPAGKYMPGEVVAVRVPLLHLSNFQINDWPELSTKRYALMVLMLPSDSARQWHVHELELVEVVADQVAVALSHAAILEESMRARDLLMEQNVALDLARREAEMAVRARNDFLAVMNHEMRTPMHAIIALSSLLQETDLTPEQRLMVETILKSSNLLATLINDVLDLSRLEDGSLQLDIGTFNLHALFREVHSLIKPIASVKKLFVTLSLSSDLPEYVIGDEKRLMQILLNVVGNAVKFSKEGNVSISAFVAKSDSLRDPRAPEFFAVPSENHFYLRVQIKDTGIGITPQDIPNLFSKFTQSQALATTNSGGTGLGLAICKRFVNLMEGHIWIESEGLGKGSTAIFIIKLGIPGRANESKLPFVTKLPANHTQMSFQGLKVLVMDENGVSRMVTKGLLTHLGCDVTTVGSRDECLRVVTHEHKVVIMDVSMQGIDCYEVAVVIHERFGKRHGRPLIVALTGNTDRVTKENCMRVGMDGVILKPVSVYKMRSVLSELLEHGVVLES
Source text: Protein-protein interaction of LeEIN2 and LeETR1 was studied by microscale thermophoresis (MST). Thermophoresis, the motion of molecules in a temperature gradient, strongly depends on the hydration-shell, the charge and the size of the moving molecules. Typically, at least one of these features changes when a protein-protein interaction occurs. Thus, MST represents a highly sensitive and reliable tool to study protein-protein interactions. By recording the motion of a fluorescence-labeled molecule in the presence of increasing concentrations of a putative binding partner, the dissociation constant (Kd) reflecting the affinity of the interaction and the stability of the complex can be calculated. Recombinant LeETR1 was labeled with the fluorescent dye Alexa Fluor 488 and 0.4 μM of labeled LeETR1 was mixed with increasing concentrations of LeEIN2^462–1316 until saturation was reached (9.6 μM as final concentration). Binding of receptor and EIN2 was observed as a clear and strong response in the MST signal. […]
Figure 1 Interaction studies of tomato ETR1 and EIN2 via MST. […] Normalized fluorescence as MST signal is plotted against increasing LeEIN2^462–1316 (●) concentrations as described. […]

[1] = molecular target: B3; test: MST; 50 nM LeETR1 labeled with Alexa Fluor 488-Maleimide titrated with NOP-1 (3.8 nM to 31 μM); 50 mM Tris-HCl pH 8.0, 300 mM NaCl, 0.015% Fos-Choline-16; 80% MST power; 1:1 model; conditions: both partners purified
[2] = molecular target: B3; test: FRET or BRET; in vitro FRET: LeETR1-Alexa Fluor 488 (donor) and LeEIN2 462-1316-Alexa Fluor 568 (acceptor), 3.0 μM each; 50 mM Tris-HCl pH 8.0, 300 mM NaCl, 0.05% Tween 20, 5% glycerol; proteins pre-incubated with peptides; excitation 455 nm, 384-well plates; conditions: both partners purified
[3] = molecular target: T2, C-terminal part of tomato EIN2 (LeEIN2^462–1316) (tomato, UniProt Q6Q2C1 462-1316, unlabeled in the MST titration of labeled LeETR1; Alexa Fluor 488 label in the reverse MST titration; Alexa Fluor 568 succinimidyl-ester label in the FRET assay); test: MST; LeEIN2 462-1316 labeled with Alexa Fluor 488 titrated with non-labeled LeETR1 (Supplementary Fig. S3); conditions: both partners purified
T2 construct: the N-terminal membrane domain (aa 1-461) was deleted from the full-length cDNA; The purified protein was detected with an anti-polyhistidine antibody; no tag removal is described; also called C-terminal domain of tomato EIN2; source: E. coli BL21(DE3) with pRARE, purified (HisTrap FF, PD-10 desalting)
T2 sequence (looked up): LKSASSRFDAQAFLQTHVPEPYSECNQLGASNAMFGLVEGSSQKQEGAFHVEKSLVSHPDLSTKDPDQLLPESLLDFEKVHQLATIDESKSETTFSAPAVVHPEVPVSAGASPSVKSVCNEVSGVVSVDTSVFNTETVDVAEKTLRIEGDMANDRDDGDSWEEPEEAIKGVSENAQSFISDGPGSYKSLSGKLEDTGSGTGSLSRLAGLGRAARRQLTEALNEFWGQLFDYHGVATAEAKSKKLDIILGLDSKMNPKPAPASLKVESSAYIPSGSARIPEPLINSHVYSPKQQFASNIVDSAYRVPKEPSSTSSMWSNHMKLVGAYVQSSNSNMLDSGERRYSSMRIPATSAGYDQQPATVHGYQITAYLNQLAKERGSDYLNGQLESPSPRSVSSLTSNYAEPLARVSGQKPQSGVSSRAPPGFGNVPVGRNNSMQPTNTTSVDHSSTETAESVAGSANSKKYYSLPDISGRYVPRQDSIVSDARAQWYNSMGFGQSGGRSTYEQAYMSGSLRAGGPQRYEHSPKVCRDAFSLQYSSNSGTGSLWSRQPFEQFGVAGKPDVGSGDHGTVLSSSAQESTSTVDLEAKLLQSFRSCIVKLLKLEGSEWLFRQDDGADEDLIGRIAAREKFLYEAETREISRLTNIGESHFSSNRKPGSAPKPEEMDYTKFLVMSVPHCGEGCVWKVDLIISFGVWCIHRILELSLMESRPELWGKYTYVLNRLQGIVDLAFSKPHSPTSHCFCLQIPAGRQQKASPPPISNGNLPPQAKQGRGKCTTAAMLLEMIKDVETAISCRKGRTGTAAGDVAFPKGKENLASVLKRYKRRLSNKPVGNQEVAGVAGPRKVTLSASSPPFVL

[4] = molecular target: T2, C-terminal part of tomato EIN2 …; test: MST; 0.4 μM LeETR1-Alexa Fluor 488 titrated with LeEIN2 462-1316 (4.69 nM to 9.6 μM); 50 mM Tris-HCl pH 8.0, 300 mM NaCl, 0.015% Fos-Choline-16; Monolith NT.115, 80% MST power, triplicates; conditions: both partners purified

B1: LeEIN2^462–1316: recombinant C-terminal part of tomato EIN2, expressed in E. coli (protein)
chain: LKSASSRFDAQAFLQTHVPEPYSECNQLGASNAMFGLVEGSSQKQEGAFHVEKSLVSHPDLSTKDPDQLLPESLLDFEKVHQLATIDESKSETTFSAPAVVHPEVPVSAGASPSVKSVCNEVSGVVSVDTSVFNTETVDVAEKTLRIEGDMANDRDDGDSWEEPEEAIKGVSENAQSFISDGPGSYKSLSGKLEDTGSGTGSLSRLAGLGRAARRQLTEALNEFWGQLFDYHGVATAEAKSKKLDIILGLDSKMNPKPAPASLKVESSAYIPSGSARIPEPLINSHVYSPKQQFASNIVDSAYRVPKEPSSTSSMWSNHMKLVGAYVQSSNSNMLDSGERRYSSMRIPATSAGYDQQPATVHGYQITAYLNQLAKERGSDYLNGQLESPSPRSVSSLTSNYAEPLARVSGQKPQSGVSSRAPPGFGNVPVGRNNSMQPTNTTSVDHSSTETAESVAGSANSKKYYSLPDISGRYVPRQDSIVSDARAQWYNSMGFGQSGGRSTYEQAYMSGSLRAGGPQRYEHSPKVCRDAFSLQYSSNSGTGSLWSRQPFEQFGVAGKPDVGSGDHGTVLSSSAQESTSTVDLEAKLLQSFRSCIVKLLKLEGSEWLFRQDDGADEDLIGRIAAREKFLYEAETREISRLTNIGESHFSSNRKPGSAPKPEEMDYTKFLVMSVPHCGEGCVWKVDLIISFGVWCIHRILELSLMESRPELWGKYTYVLNRLQGIVDLAFSKPHSPTSHCFCLQIPAGRQQKASPPPISNGNLPPQAKQGRGKCTTAAMLLEMIKDVETAISCRKGRTGTAAGDVAFPKGKENLASVLKRYKRRLSNKPVGNQEVAGVAGPRKVTLSASSPPFVL
modifications: unlabeled in the MST titration of labeled LeETR1; Alexa Fluor 488 label in the reverse MST titration; Alexa Fluor 568 succinimidyl-ester label in the FRET assay; left off: His10, end not stated, state
notes: recombinant C-terminal part of tomato EIN2, expressed in E. coli
In the case of B1, the Kd (LeETR1) is reported as 619 nM.

B2: NOP-1 (LKRYKRRL-NH2) (peptide)
peptide: H-LKRYKRRL-NH2
notes: the motif is fully conserved in tomato EIN2; also called NLS-based peptide; source: synthetic peptide (Molecular Proteomics Laboratory of the BMFZ Düsseldorf, >90% purity)
B2 gave a Kd [1] of 156 nM and an IC50 [2] of 160 µM.

B3 showed a Kd [3] of 651 nM and a Kd [4] of 619 nM.
